Measured values published in PMC10320583 (Journal of Structural Biology: X, 2023).
Blank lines part the entries; values can stand above or below the molecule they belong to.

Experiments:
[1] = target: E. coli LptAm-GSGGSGSG-AviTag, biotinylated (E. coli) (UniProt P0ADV1)
crystal structure = target: the molecule itself; assay: crystal structure
[2] = target: T1, E. coli LptAm-GSGGSGSG-AviTag, biotinylated (E. coli, UniProt P0ADV1 28-158, biotin on the AviTag (BirA biotin-protein ligase)); assay: BLI
T1 sequence (looked up): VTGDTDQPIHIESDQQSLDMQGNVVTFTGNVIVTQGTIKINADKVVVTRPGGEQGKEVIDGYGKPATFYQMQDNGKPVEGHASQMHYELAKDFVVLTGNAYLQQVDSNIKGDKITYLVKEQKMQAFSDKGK

Molecule: Chinavia ubica thanatin (peptide)
MIC against E. coli ATCC 25922 [1]: 1.4 µg/mL

Molecule: Murgantia histrionica thanatin (peptide)
MIC against E. coli ATCC 25922 [1]: 1.1 µg/mL

B1: E. coli LptAm (truncated monomeric LptA) (domain or fragment, UniProt P0ADV1 28-158, looked up)
chain: T1 sequence (looked up)
stoichiometry N (crystal structure): 2

fold improvement of binding over P. maculiventris thanatin [2]: ~3 fold
B2: P. maculiventris thanatin M21I (peptide, UniProt P55788 1-21, looked up)
peptide: GSKKPVPIIYCNRRTGKCQRI

fold improvement of binding over P. maculiventris thanatin [2]: ~3 fold
B3: P. maculiventris thanatin Q19R (peptide, UniProt P55788 1-21, looked up)
peptide: GSKKPVPIIYCNRRTGKCRRM

fold improvement of binding over P. maculiventris thanatin [2]: ~3 fold
B4: P. maculiventris thanatin Y10A (peptide, UniProt P55788 1-21, looked up)
peptide: GSKKPVPIIACNRRTGKCQRM

fold improvement of binding over P. maculiventris thanatin [2]: ~3 fold
B5: P. maculiventris thanatin Y10A/M21I (peptide, UniProt P55788 1-21, looked up)
peptide: GSKKPVPIIACNRRTGKCQRI
